Measured values as given in article PMC5374546.

B1: derCD23 (soluble monomeric lectin-like head domain of human CD23, Ser156-Glu298) (domain or fragment)
chain: SGFVCNTCPEKWINFQRKCYYFGKGTKQWVHARYACDDMEGQLVSIHSPEEQDFLTKHASHTGSWIGLRNLDLKGEFIWVDGSHVDYSNWAPGEPTSRSQGEDCVMMRGSGRWNDAFCDRKLGAWVCDRLATCTPPASEGSAE

Legend:
[1] = target: Fcε3-4 Fcε3-4 (Homo sapiens) (UniProt P01854); experiment: sedimentation equilibrium; conditions: cited from earlier work
[2] = target: IgE-Fc (Val224-Lys547, with glycosylation-site double mutation N265Q and N371Q) (human); experiment: ITC; 260 uM derCD23 in the syringe titrated into 12.5 uM IgE-Fc dimer in the cell; 25 mM Tris-HCl pH 7.4, 125 mM NaCl, 4 mM CaCl2; 25 °C; iTC200; two-site (2:1) binding model

Sequence of UniProt P01854 (P01854 209-426): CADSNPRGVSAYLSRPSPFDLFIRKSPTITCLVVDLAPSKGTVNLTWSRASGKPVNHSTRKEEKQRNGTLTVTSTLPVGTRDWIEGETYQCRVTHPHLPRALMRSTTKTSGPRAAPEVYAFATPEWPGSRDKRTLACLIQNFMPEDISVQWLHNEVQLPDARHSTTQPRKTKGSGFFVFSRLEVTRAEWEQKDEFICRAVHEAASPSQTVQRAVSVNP

Row | Molecule | Kd [1] | KD1 (site 1 of the two-site model) [2] | KD2 (site 2 of the two-site model) [2] | dH1 (site 1 of the two-site model) [2] | dH2 (site 2 of the two-site model) [2] | stoichiometry N (derCD23 per IgE-Fc dimer) [2]
1 | derCD23 derCD23 (from UniProt P06734) | 10 µM | – | – | – | – | –
2 | B1 | – | 1.2 µM | 14.4 µM | -7.2 kcal/mol | -3.7 kcal/mol | 2
